Reference: paper doi:10.1101/2022.05.01.490205 (bioRxiv, 2022)

Biological target: NRR-containing SynNotch receptor (Homo sapiens, UniProt P46531, chimera)
Test: immunostaining of cells or tissue

NRR-containing SynNotch receptor, sequence (P46531 whole entry, looked up, change not shown): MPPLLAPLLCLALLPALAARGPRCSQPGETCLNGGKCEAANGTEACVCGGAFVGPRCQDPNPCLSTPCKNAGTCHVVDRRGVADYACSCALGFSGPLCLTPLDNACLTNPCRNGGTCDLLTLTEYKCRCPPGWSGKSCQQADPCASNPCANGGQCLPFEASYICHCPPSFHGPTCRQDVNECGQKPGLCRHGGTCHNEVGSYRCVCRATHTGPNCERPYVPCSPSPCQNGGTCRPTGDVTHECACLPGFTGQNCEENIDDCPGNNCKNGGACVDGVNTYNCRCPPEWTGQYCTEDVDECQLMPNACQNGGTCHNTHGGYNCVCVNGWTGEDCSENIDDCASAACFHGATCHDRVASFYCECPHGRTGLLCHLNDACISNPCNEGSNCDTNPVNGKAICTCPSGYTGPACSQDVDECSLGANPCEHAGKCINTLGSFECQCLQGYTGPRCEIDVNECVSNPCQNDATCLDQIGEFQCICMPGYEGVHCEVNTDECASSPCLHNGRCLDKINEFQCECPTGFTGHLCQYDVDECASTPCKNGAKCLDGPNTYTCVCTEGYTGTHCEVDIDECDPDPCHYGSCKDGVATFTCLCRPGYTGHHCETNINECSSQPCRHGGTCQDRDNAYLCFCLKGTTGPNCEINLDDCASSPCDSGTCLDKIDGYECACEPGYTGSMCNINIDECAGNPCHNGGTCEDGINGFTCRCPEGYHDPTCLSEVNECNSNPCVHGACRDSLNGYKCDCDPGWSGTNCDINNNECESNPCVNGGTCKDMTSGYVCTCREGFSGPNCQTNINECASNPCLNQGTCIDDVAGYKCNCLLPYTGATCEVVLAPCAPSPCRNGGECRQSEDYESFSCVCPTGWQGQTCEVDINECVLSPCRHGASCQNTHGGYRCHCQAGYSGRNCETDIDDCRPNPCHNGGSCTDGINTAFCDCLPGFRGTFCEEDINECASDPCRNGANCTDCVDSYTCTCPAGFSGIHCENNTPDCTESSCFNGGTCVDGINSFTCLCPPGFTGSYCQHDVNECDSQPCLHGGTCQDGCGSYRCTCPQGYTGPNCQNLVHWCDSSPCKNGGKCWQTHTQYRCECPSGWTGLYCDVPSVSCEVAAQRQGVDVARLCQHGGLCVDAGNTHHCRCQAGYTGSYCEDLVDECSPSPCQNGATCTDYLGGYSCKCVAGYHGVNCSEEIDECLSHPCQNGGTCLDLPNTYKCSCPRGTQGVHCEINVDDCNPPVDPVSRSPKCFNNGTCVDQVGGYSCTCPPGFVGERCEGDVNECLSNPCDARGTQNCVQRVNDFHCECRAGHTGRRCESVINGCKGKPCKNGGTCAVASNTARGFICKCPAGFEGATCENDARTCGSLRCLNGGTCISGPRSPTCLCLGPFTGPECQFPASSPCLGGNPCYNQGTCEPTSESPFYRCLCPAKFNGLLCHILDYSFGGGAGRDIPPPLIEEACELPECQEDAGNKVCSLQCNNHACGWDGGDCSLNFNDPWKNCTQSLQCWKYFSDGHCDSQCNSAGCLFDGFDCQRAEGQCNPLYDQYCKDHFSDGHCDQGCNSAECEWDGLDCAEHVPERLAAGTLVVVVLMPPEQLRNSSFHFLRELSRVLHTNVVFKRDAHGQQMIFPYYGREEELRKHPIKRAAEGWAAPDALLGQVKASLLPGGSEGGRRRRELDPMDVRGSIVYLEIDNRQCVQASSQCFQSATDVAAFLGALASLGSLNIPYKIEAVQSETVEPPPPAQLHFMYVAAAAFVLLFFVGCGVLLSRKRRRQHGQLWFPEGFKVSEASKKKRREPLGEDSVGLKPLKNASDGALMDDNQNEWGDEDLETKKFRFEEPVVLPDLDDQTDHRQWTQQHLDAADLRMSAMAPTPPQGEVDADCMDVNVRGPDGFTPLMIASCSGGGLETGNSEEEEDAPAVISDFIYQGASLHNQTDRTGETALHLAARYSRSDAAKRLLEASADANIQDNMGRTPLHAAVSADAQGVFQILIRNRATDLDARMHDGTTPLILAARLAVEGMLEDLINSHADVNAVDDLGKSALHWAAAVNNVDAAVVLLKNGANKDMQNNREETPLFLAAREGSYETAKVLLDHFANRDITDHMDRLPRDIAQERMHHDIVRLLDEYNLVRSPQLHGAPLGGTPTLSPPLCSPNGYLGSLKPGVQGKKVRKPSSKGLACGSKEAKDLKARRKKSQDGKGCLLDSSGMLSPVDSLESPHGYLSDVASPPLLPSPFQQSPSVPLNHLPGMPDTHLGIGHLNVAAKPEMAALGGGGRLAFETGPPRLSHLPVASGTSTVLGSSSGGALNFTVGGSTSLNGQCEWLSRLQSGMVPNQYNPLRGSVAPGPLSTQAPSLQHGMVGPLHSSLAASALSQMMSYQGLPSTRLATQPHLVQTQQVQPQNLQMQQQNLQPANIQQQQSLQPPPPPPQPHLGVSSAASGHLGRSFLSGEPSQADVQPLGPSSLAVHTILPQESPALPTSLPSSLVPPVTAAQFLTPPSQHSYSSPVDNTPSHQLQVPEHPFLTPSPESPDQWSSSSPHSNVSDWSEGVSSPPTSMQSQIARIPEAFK

B1: soluble anti-NRR scFv (scFv, V domains shown)
VH: EVQLVESGGGLVQPGGSLRLSCAASGFTFSSYWIHWVRQAPGKGLEWVARINPPNRSNQYADSVKGRFTISADTSKNTAYLQMNSLRAEDTAVYYCARGSGFRWVMDYWGQGTLVTVSS
VL: DIQMTQSPSSLSASVGDRVTITCRASQDVSTAVAWYQQKPGKAPKLLIYSASFLYSGVPSRFSGSGSGTDFTLTISSLQPEDFATYYCQQFYTTPSTFGQGTKVEIK
binding result: binds
